Where two headings read alike, the source gives them in different places.
Legend:
[1] = molecular target: Arabidopsis thaliana CDC48A (Arabidopsis thaliana) (UniProt P54609); assay: cross-linking + SEC-MALS
[2] = molecular target: Arabidopsis thaliana CDC48A (Arabidopsis thaliana) (UniProt P54609); assay: ITC
[3] = molecular target: Arabidopsis thaliana CDC48A (Arabidopsis thaliana) (UniProt P54609); assay: ITC; remark: listed apart in the source
[4] = molecular target: Arabidopsis thaliana NPL4 (Arabidopsis thaliana) (UniProt O82264); assay: MST
[5] = molecular target: Arabidopsis thaliana NPL4 (Arabidopsis thaliana) (UniProt O82264); assay: MST; remark: listed apart in the source

Chain of Arabidopsis thaliana CDC48A (Arabidopsis thaliana) (P54609 whole entry): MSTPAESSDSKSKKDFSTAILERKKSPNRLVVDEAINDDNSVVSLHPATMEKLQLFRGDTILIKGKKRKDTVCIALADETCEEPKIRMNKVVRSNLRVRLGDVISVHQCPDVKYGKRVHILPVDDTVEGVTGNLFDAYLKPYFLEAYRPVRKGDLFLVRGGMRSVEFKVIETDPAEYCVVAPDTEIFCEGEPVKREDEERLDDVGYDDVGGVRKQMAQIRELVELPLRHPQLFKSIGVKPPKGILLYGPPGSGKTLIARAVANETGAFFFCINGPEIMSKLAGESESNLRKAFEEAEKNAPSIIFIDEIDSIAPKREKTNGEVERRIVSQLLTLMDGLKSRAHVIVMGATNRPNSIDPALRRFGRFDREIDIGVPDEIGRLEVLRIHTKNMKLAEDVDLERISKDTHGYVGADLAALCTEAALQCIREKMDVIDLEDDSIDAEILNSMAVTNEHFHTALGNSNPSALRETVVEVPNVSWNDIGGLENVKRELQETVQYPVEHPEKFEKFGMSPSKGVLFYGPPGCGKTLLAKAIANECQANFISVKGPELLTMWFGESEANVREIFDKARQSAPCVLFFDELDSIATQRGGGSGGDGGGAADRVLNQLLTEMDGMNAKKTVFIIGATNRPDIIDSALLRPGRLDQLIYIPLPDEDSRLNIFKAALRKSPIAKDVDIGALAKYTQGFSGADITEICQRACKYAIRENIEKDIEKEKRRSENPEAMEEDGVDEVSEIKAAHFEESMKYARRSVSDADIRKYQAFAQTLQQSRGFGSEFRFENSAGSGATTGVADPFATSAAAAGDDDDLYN
Chain of Arabidopsis thaliana NPL4 (Arabidopsis thaliana) (O82264 whole entry): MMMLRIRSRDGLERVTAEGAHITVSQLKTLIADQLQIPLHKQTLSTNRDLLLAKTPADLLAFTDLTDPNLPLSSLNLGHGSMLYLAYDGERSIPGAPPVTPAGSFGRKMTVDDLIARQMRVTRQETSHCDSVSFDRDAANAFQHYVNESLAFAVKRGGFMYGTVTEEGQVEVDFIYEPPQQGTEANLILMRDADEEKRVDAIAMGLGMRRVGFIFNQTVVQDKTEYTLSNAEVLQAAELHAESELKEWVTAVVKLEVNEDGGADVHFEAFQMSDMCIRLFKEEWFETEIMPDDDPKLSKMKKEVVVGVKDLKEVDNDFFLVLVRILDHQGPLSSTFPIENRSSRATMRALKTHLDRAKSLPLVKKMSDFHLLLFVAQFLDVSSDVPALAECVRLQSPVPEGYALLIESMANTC

Row | stoichiometry N (copy per six AtCDC48A) [1] | Kd [2] | stoichiometry N (AtNPL4 per AtCDC48A hexamer) [2] | Kd [3] | stoichiometry N (cofactor per AtCDC48A hexamer) [2] | Kd [4] | Kd [5] | Substance
1 | 1 | 2.6 µM | 1 | 7.1 µM | – | – | – | Arabidopsis thaliana NPL4 (from UniProt O82264 1-413) (natural protein)
2 | 1 | 4.4 µM | – | – | 1 | – | – | Arabidopsis thaliana UFD1B (from UniProt Q9SJV0 1-340) (natural protein)
3 | – | – | – | – | – | > 200 µM | > 200 µM | Arabidopsis thaliana UFD1A (natural protein)

From article doi:10.1101/2025.03.28.645892
